One may read the EC50 as the concentration at which the effect is half-maximal. A word on the IC50: it is the concentration at which inhibition is half-maximal. Low values mean higher potency, high ones lower potency. As a reminder, the Kd is the equilibrium constant for the complex coming apart.

Test [1] deals with rat growth hormone binding protein (rGHBP) (rat) (UniProt P16310). As to the kind of experiment: TRFD, ED50 of specific binding of biotinylated ligand to rGHBP-coated wells.
For test [2] the target is unchanged. Description: TRFD competition on rGHBP-coated wells, vs. bP#418 (SEQ ID NO: 12).
Test [3] shares this target. Description: phage ELISA competition on rGHBP (100 ng/well); blocked: H5 phage. Background: An ELISA detects its analyte on a solid surface through an enzyme-linked reagent.
Test [4] shares this target. Description: TRFD competition on rGHBP-coated wells, vs. bGH.
Test [5] shares this target. As to the kind of experiment: TRFD competition on rGHBP-coated wells, vs. bP#447 (SEQ ID NO: 11).
The target of test [6] is humanized rat growth hormone binding protein (‘hu’GHBP) (rat (humanized by one substitution)) (UniProt P16310). As to the kind of experiment: phage ELISA on ‘hu’GHBP-coated wells, +BSA (1 µM).
Test [7] shares this target. Description: phage ELISA on ‘hu’GHBP-coated wells, no competitor.
Test [8] shares this target. Description: phage ELISA on ‘hu’GHBP-coated wells, competitor human GH (+hGH, 1 µM).
In test [9] the target is T1, rat growth hormone binding protein (rGHBP) (rat, UniProt P16310 19-265).
T1 construct: extracellular domain; also called rat GHBP; soluble rGHBP
T1 sequence (looked up): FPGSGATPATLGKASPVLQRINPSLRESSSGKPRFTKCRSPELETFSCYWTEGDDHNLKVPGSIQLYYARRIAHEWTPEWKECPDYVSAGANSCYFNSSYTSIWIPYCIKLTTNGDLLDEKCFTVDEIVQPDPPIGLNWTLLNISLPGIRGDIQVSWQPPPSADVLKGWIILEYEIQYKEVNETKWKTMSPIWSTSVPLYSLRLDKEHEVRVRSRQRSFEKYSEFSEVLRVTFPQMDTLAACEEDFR
As to the kind of experiment: BIAcore, bPeptide binding to rGHBP, appKD 1. (In SPR one partner is held on a chip, and binding of the other changes the refractive index at the surface.)

For test [10], the target named is T1, rat growth hormone binding protein …. Description: BIAcore, bPeptide binding to rGHBP, appKD 2.
Test [11] has the same target. As to the kind of experiment: phage ELISA competition on rGHBP (100 ng/well); synthetic H5 peptide against H5 phage. Here is the method:
Wells were coated with rGHBP (100 ng/well) and blocked as described. […] Phage was detected with HRP-anti M13 phage antibody and reported at OD₄₀₅ as described.

The target is the same in test [12]. As to the kind of experiment: phage ELISA competition on rGHBP (100 ng/well); synthetic peptide against H5 phage. Here is the method: Wells were coated with rGHBP (100 ng/well) and blocked as described. […] The peptides included two lysine residues added to the C-terminus of the sequence shown. Phage binding was detected with HRP-anti M13 phage antibody. Number and sequence of competing peptides are detailed on the right of figure. Control binding=binding in absence of peptide.

Test [13] shares this target. As to the kind of experiment: TRFD, ED50 of specific binding to rGHBP-coated wells.
Description: (§1) rGHBP (50-200 μg/ml in 50 mM NaHCO₃) was coated onto low-fluorescence MaxiSorp (Nunc) plates (100 μl/well) overnight at 4° C. The plates were blocked with PBS containing 2% non-fat milk and 0.05% BSA for 2 hr at room temperature, followed by three PBS washes. […] Ten microliters of the 10× concentrated material was added to the plates and incubated at room temperature for 1 hr to overnight.
(§2) The plates were then washed five times with Tris-buffered saline (pH 7.5) containing 0.1% Tween-20 (TTBS). To each well, 100 μl of europium-labeled streptavidin in DELFIA assay buffer (100 mM Tris-HCl, pH 7.8; 150 mM NaCl; 0.5% BSA; 0.05% bovine Ig; 0.05% NaN3; 0.01% Tween-20) was added and incubated for 1.5 hr at room temperature. The plates were then washed five times with TTBS and tapped dry. Subsequently, 100 μl of DELFIA enhancement solution (100 mM acetone-potassium hydrogen phthalate, pH 3.2; 15 mM 2-naphtyltrifluoroacetate; 50 mM tri(n-octyl)-phosphine oxide; 0.1% Triton X-100) was added to each well, and the plates were shaken for 10 min at room temperature.
The target is the same in test [14]. As to the kind of experiment: TRFD.
The target is the same in test [15]. Description: TRFD, ED50 of specific binding of biotinylated ligand to rGHBP-coated wells.
Description: Wells were coated with rGHBP (100 ng/well) overnight as described. ED₅₀ and IC₅₀ were calculated from analysis of specific bLigand binding to rGHBP. Competitors were added 1 hr prior to addition of bLigand as described.
as §1, §2
Test [16] shares this target. Description: phage ELISA, rGHBP 100 ng/well. Here is the method: Alanine replacement for single or multiple amino acids is represented by “a” and for cysteine by “X”. FIG. 4A illustrates the binding of wild-type (WT) and mutant phage on wells coated with milk (2%), FcMAb (100 ng/well), rGHBP (100 ng/well), or MAb specific for the E-tag epitope (100 ng/well). FIG. 4B illustrates the ratio of mutant phage binding to rGHBP versus anti-E-tag MAb coated wells.
For this analysis, phage were input at 10¹⁰/well. Wild type (WT) and mutant phage were tested on wells coated with milk (2%), FcMAb (100 ng/well), rGHBP (100 ng/well), or MAb specific for the E-tag epitope (100 ng/well) (FIG. 4A). Detection with HRP-anti M13 phage antibody was done as described. In FIG. 4, alanine replacement for single or multiple amino acid is represented by “a” and for cysteine by “X”.

Where no end group is shown, it is not given here. Some results are limits rather than exact numbers.

The molecule “biotinylated growth hormone (bGH) (ligand)” showed an EC50 in [1] of 20 nM.

Regarding “growth hormone (GH), species not stated (ligand)”, the figures for the IC50 in test [2], in test [4] and in test [5] were 2 nM, 5 nM and 0.4 nM, respectively. The same molecule returned an IC50 (read off the curve) in test [3] of 5 nM.

B1: peptide #445 (peptide)
peptide: DYKDLCQRLGVGWPGWLAGWCA
modifications: cysteine pairing not given here; also: biotinylated in bP form, position not given here
Take B1: the results for the ELISA signal (unit not given) in test [6], in test [7] and in [8] were 0.11, 0.14 and 0.12, respectively.

For the molecule DYKDALLHRSRCVRWGKWVCCLPPVGVGGAQANQGMSVQRFRHC [clone HH peptide], the ELISA signal (unit not given) worked out at 0.37 in test [6], 0.37 in test [7] and 0.35 in test [8].

B2: GHBP-H5 peptide (H5WT) (peptide)
peptide: DYKDLCQSLGVTYPGWLAGWCA
modifications: cysteine pairing not given here; also: biotinylated in some formats, position not given here
notes: also called H5 phage
With B2, the equilibrium dissociation constant (Kd) stood at 1300 nM in [9] and 3500 nM in test [10]. Also, the “IC50 (read off the curve)” value in test [11] and in test [12] was roughly 1000 nM each time.

B3: peptide #447 (peptide)
peptide: DYKDLCQRLGVGWPGWLSGWCA
modifications: cysteine pairing not given here; also: biotinylated in bP form, position not given here
notes: H5 mutant from the secondary library, synthetic
Turning to B3, the Kd was 160 nM in test [9] and 2900 nM in test [10]. The EC50 in test [13] came to 700 nM; in [15], 600 nM. The “fold better binding than H5WT or bP#445” value in test [14] worked out at 10 fold. Further, the “IC50 (read off the curve)” value in [12] is roughly 90 nM.

On to DYKDLCQRLGVTWPGWLAGWCA (cysteine pairing not given here; also: biotinylated, position not given here, H5 mutant, synthetic) [peptide #443], for which the Kd in test [9] was 600 nM; in test [10], greater than 10000 nM. In [12], the “IC50 (read off the curve)” value is roughly 400 nM.

With DYKDLAQSLGVTYPGWLAGWAA (H5 phage mutant) [X---X (both C crossed out)], the binding result in test [16] is listed as “no binding (tested: 10^10 phage/well)”.

B4: peptide #418 (peptide)
peptide: DYKDLCQSWQVTWPGWLAGWCA
modifications: cysteine pairing not given here; also: biotinylated in bP form, position not given here
notes: H5 mutant from the secondary library (Y9 to W, L5 to W, G6 to E), synthetic
As to B4, the Kd in [9] came to 150 nM; in test [10] it was 670 nM. Besides, the “fold better binding than H5WT or bP#445” value in [14] turned out to be 10 fold. In test [12], the “IC50 (read off the curve)” value was roughly 100 nM. Besides, the EC50 in test [15] was 800 nM.

As to DYKDLAQSLGVTYPGWLAGWCA (H5 phage mutant) [X---C (first C crossed out)], the binding result in test [16] is “no binding (tested: 10^10 phage/well)”.

The record behind these values is patent publication US20060252697A1 (ANTYRA, published 2006).
